Assay results published in article PMC11874658, “CmHRE2L-CmACS6 transcriptional cascade negatively regulates waterlogging tolerance in Chrysanthemum”.

Target: CmHRE2-like (CmHRE2L) (UniProt A0AA96PUJ9 1-225)
Experiment: EMSA; LightShift Chemiluminescent EMSA Kit (Thermo Fisher); buffer, salt, pH and temperature not stated
Conditions: protein: recombinant; tags: GST (pGEX4T-1, N-terminal); label: biotin

CmHRE2-like (CmHRE2L), sequence (A0AA96PUJ9 entry or part of it): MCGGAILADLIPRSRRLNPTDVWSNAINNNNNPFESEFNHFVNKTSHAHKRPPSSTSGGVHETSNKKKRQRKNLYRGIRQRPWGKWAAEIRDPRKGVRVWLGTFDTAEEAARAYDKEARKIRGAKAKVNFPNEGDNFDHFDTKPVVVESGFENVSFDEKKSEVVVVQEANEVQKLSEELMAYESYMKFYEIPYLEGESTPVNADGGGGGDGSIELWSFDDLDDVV

B1: Biotin-mP, probe with mutated cis-element 3 (dsDNA)
DNA 1: ACCTTCATATGCATGAAAAAAAAATTTTCCACTCAACA
DNA 2: TGTTGAGTGGAAAATTTTTTTTTCATGCATATGAAGGT
binding result: no binding
